Experimental findings from patent US20040192900A1 are described below.

In experiment [1] the target is Fc-CD22 (UniProt P20273). In words: SPR (BIAcore 2000); 2nd mAb on Fc-CD22 without G5/44. For orientation: SPR reads the build-up and loss of mass on a sensor chip optically.
In experiment [2] the target is Fc-CD22 (UniProt P20273). In words: SPR (BIAcore 2000); 2nd mAb on Fc-CD22 pre-saturated with G5/44 (competitor G5/44).
Experiment [3] has as its target Fc-CD22 (UniProt P20273). Kind of experiment: SPR (BIAcore 2000); inhibition of 2nd mAb binding to Fc-CD22 by prior saturation with G5/44 (competitor G5/44).
Experiment [4] concerns the target Fc-CD22 (UniProt P20273). Kind of experiment: SPR (BIAcore 2000); Fc-CD22 pre-saturated with G5/44 (competitor G5/44); combined response of G5/44 and 2nd mAb.

The substance “anti-CD22 mAb SHCL-1, Leu 14 (Becton Dickinson) (antibody)” returned a Binding of 2nd mAb without G544 adjusted for background (RU) with Fc-CD22 [1] of 29.3 RU. In the experiment with Fc-CD22 [2], this substance showed a Response 3 (Response 2-1) (RU) of -74.5 RU and a Response 3 adjusted for OFF rate of G544 (RU) of 9 RU. In the experiment with Fc-CD22 [3], the Inhibition by G544 (%) is 69%. The Response 2 after 2nd Anti-CD22 mAb (RU) with Fc-CD22 [4] turned out to be 580 RU.
As for “anti-CD22 mAb 4KB128 (Dako Corp) (antibody)”, the Binding of 2nd mAb without G544 adjusted for background (RU) in the experiment with Fc-CD22 [1] stood at 739 RU. Also, in the experiment with Fc-CD22 [2], the Response 3 (Response 2-1) (RU) worked out at 652 RU and the Response 3 adjusted for OFF rate of G544 (RU) turned out to be 736 RU. The substance further returned an Inhibition by G544 (%) with Fc-CD22 [3] of 0%. Also, the Response 2 after 2nd Anti-CD22 mAb (RU) with Fc-CD22 [4] was found to be 1340 RU.
The substance “anti-CD22 mAb To 15 (Dako Corp) (antibody)” came in with a Binding of 2nd mAb without G544 adjusted for background (RU) in the experiment with Fc-CD22 [1] of 615 RU. In the experiment with Fc-CD22 [2], this substance yielded a Response 3 (Response 2-1) (RU) of 487 RU and a Response 3 adjusted for OFF rate of G544 (RU) of 570 RU. The Inhibition by G544 (%) in the experiment with Fc-CD22 [3] turned out to be 7%. In addition, the Response 2 after 2nd Anti-CD22 mAb (RU) with Fc-CD22 [4] worked out at 1160 RU.
In the experiment with Fc-CD22 [2], “anti-CD19 antibody BU12 (Celltech, Slough, UK)” came in with a Response 3 (Response 2-1) (RU) of -83.5 RU and a Response 3 adjusted for OFF rate of G544 (RU) of 0 RU. The Inhibition by G544 (%) with Fc-CD22 [3] amounted to 0%. The Response 2 after 2nd Anti-CD22 mAb (RU) with Fc-CD22 [4] was 603 RU.
Consider “anti-CD22 mAb HD239 (Santa Cruz Biotech) (antibody)”, for which, in the experiment with Fc-CD22 [1], the Binding of 2nd mAb without G544 adjusted for background (RU) amounted to 19.3 RU. Further, in the experiment with Fc-CD22 [2], the Response 3 (Response 2-1) (RU) was -81.8 RU and the Response 3 adjusted for OFF rate of G544 (RU) amounted to 1.7 RU. The Inhibition by G544 (%) with Fc-CD22 [3] amounted to 91%. Besides, in the experiment with Fc-CD22 [4], the Response 2 after 2nd Anti-CD22 mAb (RU) was 629 RU.
